The target of assay [1] is T1, rHuman Erythropoietin R/Fc Chimera, CF (R&D Systems Cat#963-ER) (human, UniProt P19235 25-250).
T1 construct: Bought Fc chimera; also called EPO R/Fc; EPOR; Fc part of the bought chimera not given
T1 sequence: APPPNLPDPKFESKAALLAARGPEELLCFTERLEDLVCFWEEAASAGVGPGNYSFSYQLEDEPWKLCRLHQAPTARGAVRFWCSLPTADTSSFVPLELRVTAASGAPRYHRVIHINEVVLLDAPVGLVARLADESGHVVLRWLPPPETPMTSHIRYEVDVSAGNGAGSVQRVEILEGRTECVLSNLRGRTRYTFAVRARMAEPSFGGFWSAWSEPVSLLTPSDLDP
The experiment in a line: MSD ECL titration, Fab 0.1 nM, blank 201.

The target in assay [2] is T2, rHuman Notch-1/Fc Chimera, CF (R&D Systems Cat#3647-TK) (human, UniProt P46531 19-526).
T2 construct: Bought Fc chimera; Fc part of the bought chimera not given
The experiment in a line: MSD ECL titration, Fab 0.1 nM, blank 201.

Assay [3] concerns the target T3, rHuman HGF R/c-MET/Fc Chimera, CF (R&D Systems Cat#358-MT/CF) (human, UniProt P08581 25-932).
T3 construct: Bought Fc chimera; also called HGF R/Fc; Fc part of the bought chimera not given
The experiment in a line: MSD ECL titration, Fab 0.1 nM, blank 201.

Assay [4] concerns the target T4, rHuman P-Cadherin/Fc Chimera, CF (R&D Systems Cat#861-PC) (human, UniProt P22223 108-654).
T4 construct: Bought Fc chimera; Fc part of the bought chimera not given
The experiment in a line: MSD ECL titration, Fab 0.1 nM, blank 201.

Assay [5] addresses T5, rHuman Notch-1/Fc Chimera, CF (R&D Systems Cat#3647-TK) (human, UniProt P46531 19-526).
T5 construct: Bought Fc chimera; Fc part of the bought chimera not given
The experiment in a line: ECL (MSD Multi-Spot) binding assay, antigen spotted on plate; Fab 6 nM; blank spot 191.

Assay [6] addresses T6, Recombinant Human DLL4 (R&D Systems Cat#1506-D4/CF) (human, UniProt Q9NR61 27-524).
T6 construct: Bought recombinant protein; also called delta-like protein 4; rHuman DLL4
The assay is described as above.

In assay [7] the target is T7, rHuman Erythropoietin R/Fc Chimera, CF (R&D Systems Cat#963-ER) (human, UniProt P19235 25-250).
T7 construct: Bought Fc chimera; also called EPO R/Fc; Epo R; Fc part of the bought chimera not given
T7 sequence: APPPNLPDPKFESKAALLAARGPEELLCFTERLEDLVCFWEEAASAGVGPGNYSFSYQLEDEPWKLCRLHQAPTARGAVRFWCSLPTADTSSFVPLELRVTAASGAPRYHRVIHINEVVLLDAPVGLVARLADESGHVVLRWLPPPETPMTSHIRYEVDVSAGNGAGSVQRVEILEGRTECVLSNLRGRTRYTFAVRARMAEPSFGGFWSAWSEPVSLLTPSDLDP
The description is as above.

Assay [8] concerns the target T8, rHuman IGF-1 sR (IGF-1 sR), CF (R&D Systems Cat#391-GR) (human, UniProt P08069 31-932).
T8 construct: Bought soluble receptor; also called insulin-like growth factor-1 soluble receptor; IGF-R1
The assay is described as above.

Assay [9] has as its target T9, rHuman ErbB2/Fc Chimera, CF (R&D Systems Cat#1129-ER) (human, UniProt P04626 23-652).
T9 construct: Bought Fc chimera; also called HER2/neu; human epidermal growth factor 2 receptor; Fc part of the bought chimera not given
Described as above.

Assay [10] has as its target T10, rHuman CD44/Fc Chimera, CF (R&D Systems Cat#3660-CD) (human, UniProt P16070 21-220).
T10 construct: Bought Fc chimera; Fc part of the bought chimera not given
The assay is described as above.

Assay [11] concerns the target T11, rHuman EGF R/Fc Chimera, CF (R&D Systems Cat#344-ER) (human, UniProt P00533 25-645).
T11 construct: Bought Fc chimera; also called epidermal growth factor receptor; Fc part of the bought chimera not given
The description is as above.

Assay [12] concerns the target T12, rHuman EGF R/Fc Chimera, CF (R&D Systems Cat#344-ER) (human, UniProt P00533 25-645).
T12 construct: Bought reagent; also called epidermal growth factor receptor; Fc part of the bought chimera not given
Kind of assay: ECL (MSD multi-spot), antigen spotted on plate; Fab 705 nM; blank spot 483.

Assay [13] addresses T13, Recombinant Human DLL4 (R&D Systems Cat#1506-D4/CF) (human, UniProt Q9NR61 27-524).
T13 construct: Bought reagent; also called delta-like protein 4
The assay is described as above.

The target of assay [14] is T14, rHuman Erythropoietin R/Fc Chimera, CF (R&D Systems Cat#963-ER) (human, UniProt P19235 25-250).
T14 construct: Bought reagent; also called EPO R/Fc; Epo R; Fc part of the bought chimera not given
T14 sequence: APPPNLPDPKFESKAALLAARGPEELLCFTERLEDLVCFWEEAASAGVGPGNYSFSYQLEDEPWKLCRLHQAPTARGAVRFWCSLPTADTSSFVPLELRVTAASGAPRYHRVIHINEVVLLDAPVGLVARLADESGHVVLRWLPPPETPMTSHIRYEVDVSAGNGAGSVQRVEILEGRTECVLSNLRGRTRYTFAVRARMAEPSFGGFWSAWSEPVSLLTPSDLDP
Described as above.

The target of assay [15] is T15, rHuman ErbB2/Fc Chimera, CF (R&D Systems Cat#1129-ER) (human, UniProt P04626 23-652).
T15 construct: Bought reagent; also called HER2/neu; human epidermal growth factor 2 receptor; Fc part of the bought chimera not given
The description is as above.

Assay [16] addresses T16, rHuman IGF-1 sR (IGF-1 sR), CF (R&D Systems Cat#391-GR) (human, UniProt P08069 31-932).
T16 construct: Bought soluble receptor; also called insulin-like growth factor-1 soluble receptor; IGF-R1
The assay is described as above.

In assay [17] the target is T17, rHuman CD44/Fc Chimera, CF (R&D Systems Cat#3660-CD) (human, UniProt P16070 21-220).
T17 construct: Bought reagent; Fc part of the bought chimera not given
The assay is described as above.

Assay [18] deals with T18, rHuman HGF R/c-MET/Fc Chimera, CF (R&D Systems Cat#358-MT/CF) (human, UniProt P08581 25-932).
T18 construct: Bought reagent; also called HGF R/Fc; hepatocyte growth factor receptor; Fc part of the bought chimera not given
The assay is described as above.
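Also: blank spot per well as comparator with Hit at signal to blank ratio of 4 or more.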

B1: Fab VH1-46_IGHD6-6*01_IGHJ1*01 & L6_IGKJ1*01 (Fab, V domains shown)
VH: QVQLVQSGAEVKKPGASVKVSCKASGYTFTSYYMHWVRQAPGQGLEWMGIINPSGGSTSYAQKFQGRVTMTRDTSTSTVYMELSSLRSEDTAVYYCAREEYSSSSAEYFQHWGQGTLVTVSS
VL: not shown
notes: Expressed in E. coli as Fab: heavy chain with CH1 plus Flag and His tags from Plasmid A, kappa light chain constant region from Plasmid C; also called Fab No. 1
Turning to B1, the ECL signal in assay [1] came to 373; in assay [2] it was 378; in assay [3], 286; in [4], 235.

B2: Fab VH5-51_IGHD5-18*01>3_IGHJ4*01 & V3-4_IGLJ1*01 (Fab, V domains shown)
VH: EVQLVQSGAEVKKPGESLKISCKGSGYSFTSYWIGWVRQMPGKGLEWMGIIYPGDSDTRYSPSFQGQVTISADKSISTAYLQWSSLKASDTAMYYCARRGYSYGYDYFDYWGQGTLVTVSS
VL: QTVVTQEPSFSVSPGGTVTLTCGLSSGSVSTSYYPSWYQQTPGQAPRTLIYSTNTRSSGVPDRFSGSILGNKAALTITGAQADDESDYYCVLYMGSGISYVFGTGTKVTVL
notes: Tested as a Fab made in E. coli; also called IGHV5-51*03
In the case of B2, the ECL signal in [5] stood at 464; in assay [6] it was 1950; in assay [7], 548; in assay [8], 854; in assay [9] it was 873; in [10], 547. The molecule also registered an ECL signal in [11] of 742.

B3: Fab VH1-46_IGHD3-10*01_IGHJ4*01 & B3_IGKJ1*01 (Fab, V domains shown)
VH: QVQLVQSGAEVKKPGASVKVSCKASGYTFTSYYMHWVRQAPGQGLEWMGIINPSGGSTSYAQKFQGRVTMTRDTSTSTVYMELSSLRSEDTAVYYCAREYYYGSGSYYNDYFDYWGQGTLVTVSS
VL: not shown
notes: also called IGHV1-46*01
On to B3, for which the ECL signal in assay [12] turned out to be 692; in [13], 981; in [14] it was 4890; in [15], 671; in assay [16] it was 630; in assay [17] it was 693. The same molecule returned an ECL signal in assay [18] of 839.

The record behind these values is patent publication US20120058906A1 (published 2012).
